{"source": "patent US20240261333A1", "about": "“NOVEL TARGETS FOR ENHANCING ANTI-TUMOR IMMUNITY” (THE BROAD INSTITUTE, INC., priority 2021, published 2024)", "key": {"ARPC1B (human)": {"biological_target": "ARPC1B (human) (UniProt O15143)", "assay": "co-IP with IgG control, lysate of C-FLAG B3GNT2 cells, mass spectrometry"}, "CLTC (human)": {"biological_target": "CLTC (human) (UniProt Q00610)", "assay": "co-IP with IgG control, lysate of C-FLAG B3GNT2 cells, mass spectrometry"}, "COPA (human)": {"biological_target": "COPA (human) (UniProt P53621)", "assay": "co-IP with IgG control, lysate of C-FLAG B3GNT2 cells, mass spectrometry"}, "CPSF7 (human)": {"biological_target": "CPSF7 (human) (UniProt Q8N684)", "sequence (Q8N684 whole entry)": "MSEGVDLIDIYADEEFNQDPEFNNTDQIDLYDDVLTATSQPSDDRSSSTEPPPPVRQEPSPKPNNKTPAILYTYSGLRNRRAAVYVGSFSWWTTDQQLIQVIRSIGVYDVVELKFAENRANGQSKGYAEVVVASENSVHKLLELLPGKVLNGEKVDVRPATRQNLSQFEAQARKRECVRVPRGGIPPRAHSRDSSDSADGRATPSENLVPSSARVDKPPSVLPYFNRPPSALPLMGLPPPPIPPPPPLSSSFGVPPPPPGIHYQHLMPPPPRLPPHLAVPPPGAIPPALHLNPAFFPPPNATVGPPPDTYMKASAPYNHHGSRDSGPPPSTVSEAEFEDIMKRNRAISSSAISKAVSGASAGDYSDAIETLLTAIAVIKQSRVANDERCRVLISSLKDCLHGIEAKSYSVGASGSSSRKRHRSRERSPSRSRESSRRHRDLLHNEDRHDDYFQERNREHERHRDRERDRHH", "assay": "co-IP with IgG control, lysate of C-FLAG B3GNT2 cells, mass spectrometry"}, "CPT1A (human) [1]": {"biological_target": "CPT1A (human) (UniProt P50416)", "sequence (P50416 other isoform, or with tags, fused parts or gaps limits assumed)": "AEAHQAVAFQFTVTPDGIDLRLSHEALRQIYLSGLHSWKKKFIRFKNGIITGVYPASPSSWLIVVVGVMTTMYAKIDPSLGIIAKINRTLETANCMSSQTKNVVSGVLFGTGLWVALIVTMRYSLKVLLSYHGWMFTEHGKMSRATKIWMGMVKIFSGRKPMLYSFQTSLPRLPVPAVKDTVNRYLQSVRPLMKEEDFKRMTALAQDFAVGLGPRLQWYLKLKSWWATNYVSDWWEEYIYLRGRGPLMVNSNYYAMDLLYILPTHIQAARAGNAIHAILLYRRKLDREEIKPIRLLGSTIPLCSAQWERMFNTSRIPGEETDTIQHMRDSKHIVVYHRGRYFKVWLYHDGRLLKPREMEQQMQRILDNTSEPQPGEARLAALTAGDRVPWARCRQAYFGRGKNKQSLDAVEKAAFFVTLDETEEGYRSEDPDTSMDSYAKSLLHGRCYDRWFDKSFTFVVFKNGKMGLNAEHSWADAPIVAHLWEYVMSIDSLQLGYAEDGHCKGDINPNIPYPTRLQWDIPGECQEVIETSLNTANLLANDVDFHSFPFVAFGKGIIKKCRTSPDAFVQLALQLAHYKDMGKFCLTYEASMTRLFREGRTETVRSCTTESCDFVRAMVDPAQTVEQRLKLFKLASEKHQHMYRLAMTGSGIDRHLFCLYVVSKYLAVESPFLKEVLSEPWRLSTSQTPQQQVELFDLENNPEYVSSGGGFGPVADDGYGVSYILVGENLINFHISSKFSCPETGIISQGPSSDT", "assay": "co-IP with IgG control, lysate of C-FLAG B3GNT2 cells, mass spectrometry"}, "DDX17 (human)": {"biological_target": "DDX17 (human) (UniProt Q92841)", "assay": "co-IP with IgG control, lysate of C-FLAG B3GNT2 cells, mass spectrometry"}, "DDX3X (human)": {"biological_target": "DDX3X (human) (UniProt O00571)", "assay": "co-IP with IgG control, lysate of C-FLAG B3GNT2 cells, mass spectrometry"}, "JUP (human)": {"biological_target": "JUP (human) (UniProt P14923)", "assay": "co-IP with IgG control, lysate of C-FLAG B3GNT2 cells, mass spectrometry"}, "[2]": {"biological_target": "P0AA25.2 [thioredoxin: P0AA25]", "sequence (P0AA25 2-109)": "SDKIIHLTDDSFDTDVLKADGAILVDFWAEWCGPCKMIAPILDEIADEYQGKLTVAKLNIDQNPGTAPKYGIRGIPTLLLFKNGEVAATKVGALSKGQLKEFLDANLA", "assay": "co-IP with IgG control, lysate of C-FLAG B3GNT2 cells, mass spectrometry"}, "P4HA2 (human)": {"biological_target": "P4HA2 (human) (UniProt O15460)", "assay": "co-IP with IgG control, lysate of C-FLAG B3GNT2 cells, mass spectrometry"}, "PLOD1 (human)": {"biological_target": "PLOD1 (human) (UniProt Q02809)", "assay": "co-IP with IgG control, lysate of C-FLAG B3GNT2 cells, mass spectrometry"}, "PRRC2C (human)": {"biological_target": "PRRC2C (human) (UniProt Q9Y520)", "assay": "co-IP with IgG control, lysate of C-FLAG B3GNT2 cells, mass spectrometry"}, "PSMA3 (human)": {"biological_target": "PSMA3 (human) (UniProt P25788)", "assay": "co-IP with IgG control, lysate of C-FLAG B3GNT2 cells, mass spectrometry"}, "PSMB5 (human)": {"biological_target": "PSMB5 (human) (UniProt P28074)", "assay": "co-IP with IgG control, lysate of C-FLAG B3GNT2 cells, mass spectrometry"}, "PUF60 (human)": {"biological_target": "PUF60 (human) (UniProt Q9UHX1)", "assay": "co-IP with IgG control, lysate of C-FLAG B3GNT2 cells, mass spectrometry"}, "PURA (human)": {"biological_target": "PURA (human) (UniProt Q00577)", "assay": "co-IP with IgG control, lysate of C-FLAG B3GNT2 cells, mass spectrometry"}, "RPL17 (human)": {"biological_target": "RPL17 (human) (UniProt P18621)", "assay": "co-IP with IgG control, lysate of C-FLAG B3GNT2 cells, mass spectrometry"}, "RPL7A (human)": {"biological_target": "RPL7A (human) (UniProt P62424)", "assay": "co-IP with IgG control, lysate of C-FLAG B3GNT2 cells, mass spectrometry"}, "SBSN (human)": {"biological_target": "SBSN (human) (UniProt Q6UWP8)", "assay": "co-IP with IgG control, lysate of C-FLAG B3GNT2 cells, mass spectrometry"}, "SPARC (human)": {"biological_target": "SPARC (human) (UniProt P09486)", "sequence (P09486 18-303 limits assumed)": "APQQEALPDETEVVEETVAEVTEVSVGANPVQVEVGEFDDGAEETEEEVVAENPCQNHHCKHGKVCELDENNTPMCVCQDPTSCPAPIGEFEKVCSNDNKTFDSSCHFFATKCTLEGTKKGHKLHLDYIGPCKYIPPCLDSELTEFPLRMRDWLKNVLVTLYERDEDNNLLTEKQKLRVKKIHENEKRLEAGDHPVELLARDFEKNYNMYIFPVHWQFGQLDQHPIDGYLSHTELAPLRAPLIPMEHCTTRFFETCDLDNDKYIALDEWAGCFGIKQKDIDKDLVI", "assay": "co-IP with IgG control, lysate of C-FLAG B3GNT2 cells, mass spectrometry"}, "SRSF6 (human)": {"biological_target": "SRSF6 (human) (UniProt Q13247)", "assay": "co-IP with IgG control, lysate of C-FLAG B3GNT2 cells, mass spectrometry"}, "TGM1 (human)": {"biological_target": "TGM1 (human) (UniProt P22735)", "assay": "co-IP with IgG control, lysate of C-FLAG B3GNT2 cells, mass spectrometry"}, "TM9SF1 (human)": {"biological_target": "TM9SF1 (human) (UniProt O15321)", "assay": "co-IP with IgG control, lysate of C-FLAG B3GNT2 cells, mass spectrometry"}, "TPM2 (human)": {"biological_target": "TPM2 (human) (UniProt P07951)", "assay": "co-IP with IgG control, lysate of C-FLAG B3GNT2 cells, mass spectrometry"}, "TTC13 (human)": {"biological_target": "TTC13 (human) (UniProt Q8NBP0)", "sequence (Q8NBP0 other isoform, or with tags, fused parts or gaps limits assumed)": "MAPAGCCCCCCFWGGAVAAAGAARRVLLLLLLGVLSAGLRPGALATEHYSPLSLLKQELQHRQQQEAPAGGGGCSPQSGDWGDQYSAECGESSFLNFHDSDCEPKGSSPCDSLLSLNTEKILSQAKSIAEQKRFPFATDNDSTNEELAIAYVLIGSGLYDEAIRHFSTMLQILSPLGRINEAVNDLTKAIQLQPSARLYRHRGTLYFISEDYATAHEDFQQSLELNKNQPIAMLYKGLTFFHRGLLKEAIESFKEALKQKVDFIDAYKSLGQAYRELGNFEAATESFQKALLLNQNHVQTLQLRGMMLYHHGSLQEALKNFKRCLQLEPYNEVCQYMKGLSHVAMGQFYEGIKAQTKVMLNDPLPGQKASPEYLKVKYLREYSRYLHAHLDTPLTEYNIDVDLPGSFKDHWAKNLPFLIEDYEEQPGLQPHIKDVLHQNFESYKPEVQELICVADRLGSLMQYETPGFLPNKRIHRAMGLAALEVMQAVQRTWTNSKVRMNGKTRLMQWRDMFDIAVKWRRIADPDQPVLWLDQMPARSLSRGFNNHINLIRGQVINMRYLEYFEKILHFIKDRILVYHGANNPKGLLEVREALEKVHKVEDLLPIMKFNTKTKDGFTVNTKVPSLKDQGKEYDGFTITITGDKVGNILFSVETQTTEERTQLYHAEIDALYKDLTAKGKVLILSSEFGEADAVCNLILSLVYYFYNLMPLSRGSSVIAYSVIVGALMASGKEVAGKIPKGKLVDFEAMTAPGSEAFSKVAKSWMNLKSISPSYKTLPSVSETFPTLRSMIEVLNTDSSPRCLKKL", "assay": "co-IP with IgG control, lysate of C-FLAG B3GNT2 cells, mass spectrometry"}, "UniProt P01837.1": {"biological_target": "UniProt P01837.1", "assay": "co-IP with IgG control, lysate of C-FLAG B3GNT2 cells, mass spectrometry"}, "XPO1 (human)": {"biological_target": "XPO1 (human) (UniProt O14980)", "sequence (O14980 whole entry)": "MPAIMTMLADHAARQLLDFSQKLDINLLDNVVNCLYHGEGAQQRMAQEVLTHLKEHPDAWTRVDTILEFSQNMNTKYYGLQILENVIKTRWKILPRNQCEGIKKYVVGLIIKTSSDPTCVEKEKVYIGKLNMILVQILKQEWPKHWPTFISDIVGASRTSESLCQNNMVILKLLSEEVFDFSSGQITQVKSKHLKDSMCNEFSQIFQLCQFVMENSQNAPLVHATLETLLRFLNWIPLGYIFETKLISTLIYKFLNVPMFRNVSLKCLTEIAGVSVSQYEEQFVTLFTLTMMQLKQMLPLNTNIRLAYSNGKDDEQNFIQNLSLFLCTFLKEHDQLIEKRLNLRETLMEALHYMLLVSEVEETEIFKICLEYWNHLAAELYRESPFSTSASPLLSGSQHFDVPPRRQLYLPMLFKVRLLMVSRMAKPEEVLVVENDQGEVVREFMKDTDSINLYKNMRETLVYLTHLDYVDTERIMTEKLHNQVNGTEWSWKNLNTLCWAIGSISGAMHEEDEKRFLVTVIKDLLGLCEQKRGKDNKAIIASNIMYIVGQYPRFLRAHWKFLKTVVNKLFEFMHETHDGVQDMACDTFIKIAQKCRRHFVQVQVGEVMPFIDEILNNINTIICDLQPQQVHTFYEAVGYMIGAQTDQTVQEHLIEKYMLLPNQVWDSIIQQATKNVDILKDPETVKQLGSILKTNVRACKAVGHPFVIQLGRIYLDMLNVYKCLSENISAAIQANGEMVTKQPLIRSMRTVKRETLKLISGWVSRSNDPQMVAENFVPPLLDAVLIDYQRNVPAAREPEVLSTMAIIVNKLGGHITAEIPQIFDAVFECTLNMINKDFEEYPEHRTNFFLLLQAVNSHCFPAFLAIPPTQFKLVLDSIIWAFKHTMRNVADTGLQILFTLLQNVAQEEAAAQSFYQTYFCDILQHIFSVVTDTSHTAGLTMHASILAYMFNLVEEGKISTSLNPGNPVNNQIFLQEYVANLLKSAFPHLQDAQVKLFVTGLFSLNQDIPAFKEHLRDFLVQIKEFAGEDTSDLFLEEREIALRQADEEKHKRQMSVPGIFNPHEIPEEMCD", "assay": "co-IP with IgG control, lysate of C-FLAG B3GNT2 cells, mass spectrometry"}, "CPT1A (human) [3]": {"biological_target": "CPT1A (human) (UniProt P50416)", "assay": "co-IP with anti-FLAG, N-FLAG B3GNT2, mass spectrometry"}, "EMILIN1 (human)": {"biological_target": "EMILIN1 (human) (UniProt Q9Y6C2)", "assay": "co-IP with anti-FLAG, N-FLAG B3GNT2, mass spectrometry"}, "GSN (human)": {"biological_target": "GSN (human) (UniProt P06396)", "sequence (P06396 28-782 limits assumed)": "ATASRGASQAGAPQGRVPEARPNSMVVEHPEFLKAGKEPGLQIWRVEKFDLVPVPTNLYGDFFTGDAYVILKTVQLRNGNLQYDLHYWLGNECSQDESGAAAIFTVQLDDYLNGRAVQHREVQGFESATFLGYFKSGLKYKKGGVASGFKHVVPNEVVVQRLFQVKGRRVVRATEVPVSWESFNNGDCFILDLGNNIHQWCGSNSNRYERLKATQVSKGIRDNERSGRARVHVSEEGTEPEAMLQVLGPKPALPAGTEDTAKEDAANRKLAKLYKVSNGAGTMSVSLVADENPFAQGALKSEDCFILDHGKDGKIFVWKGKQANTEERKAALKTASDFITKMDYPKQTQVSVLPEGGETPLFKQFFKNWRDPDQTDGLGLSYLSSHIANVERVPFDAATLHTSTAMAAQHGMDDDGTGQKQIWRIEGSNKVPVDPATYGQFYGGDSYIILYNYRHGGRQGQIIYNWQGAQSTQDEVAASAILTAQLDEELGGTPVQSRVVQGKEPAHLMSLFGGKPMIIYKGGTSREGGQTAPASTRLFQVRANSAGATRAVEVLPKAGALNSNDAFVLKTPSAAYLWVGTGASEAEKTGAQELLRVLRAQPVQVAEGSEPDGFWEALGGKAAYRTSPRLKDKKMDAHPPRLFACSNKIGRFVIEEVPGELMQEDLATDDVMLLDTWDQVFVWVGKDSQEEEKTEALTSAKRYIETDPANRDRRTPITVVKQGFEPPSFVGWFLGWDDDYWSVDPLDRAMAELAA", "assay": "co-IP with anti-FLAG, N-FLAG B3GNT2, mass spectrometry"}, "HNRNPH1 (human)": {"biological_target": "HNRNPH1 (human) (UniProt P31943)", "assay": "co-IP with anti-FLAG, N-FLAG B3GNT2, mass spectrometry"}, "IL13RA2 (human)": {"biological_target": "IL13RA2 (human) (UniProt Q14627)", "assay": "co-IP with anti-FLAG, N-FLAG B3GNT2, mass spectrometry"}, "MMS19 (human)": {"biological_target": "MMS19 (human) (UniProt Q96T76)", "assay": "co-IP with anti-FLAG, N-FLAG B3GNT2, mass spectrometry"}, "PPFIBP1 (human)": {"biological_target": "PPFIBP1 (human) (UniProt Q86W92)", "assay": "co-IP with anti-FLAG, N-FLAG B3GNT2, mass spectrometry"}, "RHOT2 (human)": {"biological_target": "RHOT2 (human) (UniProt Q8IXI1)", "sequence (Q8IXI1 whole entry)": "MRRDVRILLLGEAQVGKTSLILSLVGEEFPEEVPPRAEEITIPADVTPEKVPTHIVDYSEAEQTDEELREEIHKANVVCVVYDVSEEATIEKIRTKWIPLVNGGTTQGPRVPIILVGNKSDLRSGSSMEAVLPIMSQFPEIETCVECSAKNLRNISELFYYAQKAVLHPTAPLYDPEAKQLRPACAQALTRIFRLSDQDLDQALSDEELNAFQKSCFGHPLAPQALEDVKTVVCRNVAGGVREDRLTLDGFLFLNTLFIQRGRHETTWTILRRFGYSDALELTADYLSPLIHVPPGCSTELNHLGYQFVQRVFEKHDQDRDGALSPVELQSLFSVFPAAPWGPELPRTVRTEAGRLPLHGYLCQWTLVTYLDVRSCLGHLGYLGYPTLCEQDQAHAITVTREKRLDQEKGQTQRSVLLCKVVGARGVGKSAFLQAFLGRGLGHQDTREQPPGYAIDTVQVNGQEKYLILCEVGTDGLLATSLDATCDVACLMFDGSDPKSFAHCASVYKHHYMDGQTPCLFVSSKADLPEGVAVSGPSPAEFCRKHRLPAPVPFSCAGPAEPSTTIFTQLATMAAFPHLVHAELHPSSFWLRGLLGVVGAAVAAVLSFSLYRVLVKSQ", "assay": "co-IP with anti-FLAG, N-FLAG B3GNT2, mass spectrometry"}, "RPL28 (human)": {"biological_target": "RPL28 (human) (UniProt P46779)", "assay": "co-IP with anti-FLAG, N-FLAG B3GNT2, mass spectrometry"}, "RPL8 (human)": {"biological_target": "RPL8 (human) (UniProt P62917)", "assay": "co-IP with anti-FLAG, N-FLAG B3GNT2, mass spectrometry"}, "SERPINB3 (human)": {"biological_target": "SERPINB3 (human) (UniProt P29508)", "assay": "co-IP with anti-FLAG, N-FLAG B3GNT2, mass spectrometry"}}}
{"substance": "IgG control (Millipore Sigma 12-371) (antibody)", "values": [{"measurement": "co-IP/MS count, C-term IgG", "setting": "ARPC1B (human)", "result": 2}, {"measurement": "co-IP/MS count, C-term IgG", "setting": "CLTC (human)", "result": 5}, {"measurement": "co-IP/MS count, C-term IgG", "setting": "COPA (human)", "result": 0}, {"measurement": "co-IP/MS count, C-term IgG", "setting": "CPSF7 (human)", "result": 9}, {"measurement": "co-IP/MS count, C-term IgG", "setting": "CPT1A (human) [1]", "result": 0}, {"measurement": "co-IP/MS count, C-term IgG", "setting": "DDX17 (human)", "result": 22}, {"measurement": "co-IP/MS count, C-term IgG", "setting": "DDX3X (human)", "result": 15}, {"measurement": "co-IP/MS count, C-term IgG", "setting": "JUP (human)", "result": 36}, {"measurement": "co-IP/MS count, C-term IgG", "setting": "[2]", "result": 8}, {"measurement": "co-IP/MS count, C-term IgG", "setting": "P4HA2 (human)", "result": 0}, {"measurement": "co-IP/MS count, C-term IgG", "setting": "PLOD1 (human)", "result": 0}, {"measurement": "co-IP/MS count, C-term IgG", "setting": "PRRC2C (human)", "result": 6}, {"measurement": "co-IP/MS count, C-term IgG", "setting": "PSMA3 (human)", "result": 0}, {"measurement": "co-IP/MS count, C-term IgG", "setting": "PSMB5 (human)", "result": 0}, {"measurement": "co-IP/MS count, C-term IgG", "setting": "PUF60 (human)", "result": 5}, {"measurement": "co-IP/MS count, C-term IgG", "setting": "PURA (human)", "result": 0}, {"measurement": "co-IP/MS count, C-term IgG", "setting": "RPL17 (human)", "result": 2}, {"measurement": "co-IP/MS count, C-term IgG", "setting": "RPL7A (human)", "result": 5}, {"measurement": "co-IP/MS count, C-term IgG", "setting": "SBSN (human)", "result": 15}, {"measurement": "co-IP/MS count, C-term IgG", "setting": "SPARC (human)", "result": 0}, {"measurement": "co-IP/MS count, C-term IgG", "setting": "SRSF6 (human)", "result": 5}, {"measurement": "co-IP/MS count, C-term IgG", "setting": "TGM1 (human)", "result": 10}, {"measurement": "co-IP/MS count, C-term IgG", "setting": "TM9SF1 (human)", "result": 0}, {"measurement": "co-IP/MS count, C-term IgG", "setting": "TPM2 (human)", "result": 0}, {"measurement": "co-IP/MS count, C-term IgG", "setting": "TTC13 (human)", "result": 0}, {"measurement": "co-IP/MS count, C-term IgG", "setting": "UniProt P01837.1", "result": 108}, {"measurement": "co-IP/MS count, C-term IgG", "setting": "XPO1 (human)", "result": 0}]}
{"substance": "N-terminal FLAG tagged B3GNT2 (from UniProt Q9NY97 1-397) (enzyme)", "values": [{"measurement": "co-IP/MS count, N-term FLAG", "setting": "CPT1A (human) [3]", "result": 2}, {"measurement": "co-IP mass spectrometry count", "setting": "EMILIN1 (human)", "result": 2}, {"measurement": "co-IP mass spectrometry count", "setting": "GSN (human)", "result": 2}, {"measurement": "co-IP/MS count, N-term FLAG", "setting": "HNRNPH1 (human)", "result": 11}, {"measurement": "co-IP mass spectrometry count", "setting": "IL13RA2 (human)", "result": 3}, {"measurement": "co-IP/MS count, N-term FLAG", "setting": "MMS19 (human)", "result": 4}, {"measurement": "co-IP mass spectrometry count", "setting": "PPFIBP1 (human)", "result": 2}, {"measurement": "co-IP mass spectrometry count", "setting": "RHOT2 (human)", "result": 3}, {"measurement": "co-IP mass spectrometry count", "setting": "RPL28 (human)", "result": 8}, {"measurement": "co-IP mass spectrometry count", "setting": "RPL8 (human)", "result": 10}, {"measurement": "co-IP mass spectrometry count", "setting": "SERPINB3 (human)", "result": 10}]}
